Experimental findings from PMC2987765 are described below.

The assay deals with Flag-tagged full length Ack1 (human) (UniProt Q07912). In words: co-IP; Cos7 cells transfected with FLAG-Ack1 alone or with HA-NKD or HA-KD; RIPA lysates (450-750 ug) incubated overnight at 4°C with FLAG M2 affinity gel, washed 5 times with RIPA buffer; blots with anti-HA and anti-FLAG; densitometry ratio HA-Ack1/Flag-Ack1.

“HA-tagged Ack1 NKD (amino terminus plus kinase domain) (from UniProt Q07912 1-385) (domain or fragment)”: the fold co-immunoprecipitation against HA-KD was 3 fold.
